From doi:10.1101/787473, “C9orf72 arginine-rich dipeptide repeat proteins disrupt importin β-mediated nuclear import” (bioRxiv, 2019)
No end group written: not given here.

B1: PR10, synthetic poly-proline-arginine 10-mer dipeptide repeat protein with C-terminal lysine and cysteine (peptide)
peptide: PRPRPRPRPRPRPRPRPRPRKC
notes: C9orf72 poly-PR dipeptide repeat, ten repeats, with C-terminal K (solubility) and C (labelling); Unlabelled peptide; The C-terminal KC was added by the authors; also called R-DPR; source: synthetic peptide (Genscript; 21st Century Biochemicals)
B2: GR10, synthetic poly-glycine-arginine 10-mer dipeptide repeat protein with C-terminal lysine and cysteine (peptide)
peptide: GRGRGRGRGRGRGRGRGRGRKC
notes: C9orf72 poly-GR dipeptide repeat, ten repeats, with C-terminal K (solubility) and C (labelling); Unlabelled peptide; The C-terminal KC was added by the authors; also called poly-GR; R-DPR; source: synthetic peptide (Genscript; 21st Century Biochemicals)
B3: AF488-labeled PR10 (peptide)
peptide: PRPRPRPRPRPRPRPRPRPRKC(Alexa Fluor 488 C5‑maleimide)
notes: C9orf72 poly-PR dipeptide repeat, ten repeats, with C-terminal K and C; also called AF488-PR10; AF488-labeled R-DPR; source: synthetic peptide (Genscript)
B4: AF488-labeled GR10 (peptide)
peptide: GRGRGRGRGRGRGRGRGRGRKC(Alexa Fluor 488 C5‑maleimide)
notes: C9orf72 poly-GR dipeptide repeat, ten repeats, with C-terminal K and C; also called AF488-GR10; AF488-labeled R-DPR; source: synthetic peptide (Genscript)

How the values were obtained:
Settings in all cases: both partners purified
[1] = biological target: T1, full length human importin β (KPNB1), expressed from pET30a-WT Importin β (pKW485) (human, UniProt Q14974 1-876); experiment: FRET or BRET; displacement of importin β from the Rango FRET sensor in solution: 20 nM Rango + 50 nM importin β in TBS pH 7.4, 0.005% Tween-20, increasing concentrations of DPR 10-mers or ZZ-RanQ69L-GTP; acceptor/donor emission ratio, fit to one-site binding model
T1 construct: importin β (KPNB1), human, wild type, full length; also called unlabeled importin β
T1 sequence (Q14974 whole entry): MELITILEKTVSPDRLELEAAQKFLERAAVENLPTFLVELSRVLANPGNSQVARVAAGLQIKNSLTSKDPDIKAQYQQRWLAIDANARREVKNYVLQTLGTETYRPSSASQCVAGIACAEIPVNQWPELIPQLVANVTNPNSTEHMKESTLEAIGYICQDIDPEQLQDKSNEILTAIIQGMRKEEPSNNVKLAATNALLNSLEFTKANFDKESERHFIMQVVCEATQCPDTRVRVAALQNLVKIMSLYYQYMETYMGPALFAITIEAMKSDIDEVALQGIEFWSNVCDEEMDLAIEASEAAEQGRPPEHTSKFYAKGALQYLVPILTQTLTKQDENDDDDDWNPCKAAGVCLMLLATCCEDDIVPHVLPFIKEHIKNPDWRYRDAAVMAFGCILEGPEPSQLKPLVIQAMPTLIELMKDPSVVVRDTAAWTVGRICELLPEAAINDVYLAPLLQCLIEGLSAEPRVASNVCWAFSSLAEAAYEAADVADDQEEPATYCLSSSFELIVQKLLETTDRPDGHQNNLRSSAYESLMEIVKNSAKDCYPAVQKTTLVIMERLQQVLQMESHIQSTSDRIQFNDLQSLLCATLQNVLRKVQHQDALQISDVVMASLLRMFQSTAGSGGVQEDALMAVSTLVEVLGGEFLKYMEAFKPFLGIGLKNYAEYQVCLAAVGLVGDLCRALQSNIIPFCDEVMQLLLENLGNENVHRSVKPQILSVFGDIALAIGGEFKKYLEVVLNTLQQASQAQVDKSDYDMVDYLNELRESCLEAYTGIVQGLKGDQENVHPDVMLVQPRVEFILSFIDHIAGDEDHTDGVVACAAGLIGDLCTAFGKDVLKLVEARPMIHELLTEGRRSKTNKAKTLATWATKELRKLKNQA

[2] = biological target: T2, biotinylated WT importin β-Avitag (pKW1982; pK1099) (human, UniProt Q14974 1-876, biotin on the Avitag (co-expressed biotin ligase, 100 µM D-biotin)); experiment: bead halo assay; biotinylated bait (importin β-Avitag or BSA) on neutravidin beads; fluorescent prey (AF488-DPR 200 nM, Rango) in binding buffer (20 mM HEPES pH 7.4, 150 mM KOAc, 2 mM Mg(OAc)2, 1 mM DTT, 0.1% Tween-20) with EHBN; room temperature, at least 30 min; confocal rim vs. background ratio
T2 construct: importin β (KPNB1), human, wild type; called full-length in the results of the bead halo assay; Immobilised on neutravidin beads by the biotinylated Avitag; also called biotinylated importin β; full-length importin β-coated beads; source: E. coli BL21DE3 co-transfected with pAC-biotin ligase, purified (Ni-NTA)
T2 sequence (Q14974 whole entry): as above

[3] = biological target: T3, GST-tagged S. cerevisiae Nup100(1-307) (S. cerevisiae, UniProt Q02629 1-307); experiment: bead halo assay; GST-fusion yeast FG- and GLFG-domain baits on glutathione beads; AF488-labeled DPRs in binding buffer, without added importin β; rim vs. background ratio against the Nup116 F>A mutant
T3 construct: Nup100, S. cerevisiae, residues 1-307 (GLFG domain fragment); Bait on glutathione beads; also called FG-domains of Nup100; Nup100 fragments; source: E. coli T7 Shuffle, purified (glutathione-sepharose)
T3 sequence (Q02629 1-307): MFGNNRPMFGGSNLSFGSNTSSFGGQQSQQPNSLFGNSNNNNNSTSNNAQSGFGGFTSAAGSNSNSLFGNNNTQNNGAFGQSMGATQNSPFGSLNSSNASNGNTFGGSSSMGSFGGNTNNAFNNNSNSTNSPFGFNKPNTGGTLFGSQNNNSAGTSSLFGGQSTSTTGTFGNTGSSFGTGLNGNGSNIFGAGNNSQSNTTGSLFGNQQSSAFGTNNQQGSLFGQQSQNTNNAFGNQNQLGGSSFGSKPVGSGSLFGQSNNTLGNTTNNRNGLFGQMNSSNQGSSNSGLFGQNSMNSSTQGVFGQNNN

[4] = biological target: T4, GST-tagged S. cerevisiae Nup100(1-610) (S. cerevisiae, UniProt Q02629 1-610); experiment: as above
T4 construct: Nup100, S. cerevisiae, residues 1-610 (GLFG domain fragment); Bait on glutathione beads; also called FG-domains of Nup100; Nup100 fragments; source: E. coli T7 Shuffle, purified (glutathione-sepharose)
T4 sequence (Q02629 1-610): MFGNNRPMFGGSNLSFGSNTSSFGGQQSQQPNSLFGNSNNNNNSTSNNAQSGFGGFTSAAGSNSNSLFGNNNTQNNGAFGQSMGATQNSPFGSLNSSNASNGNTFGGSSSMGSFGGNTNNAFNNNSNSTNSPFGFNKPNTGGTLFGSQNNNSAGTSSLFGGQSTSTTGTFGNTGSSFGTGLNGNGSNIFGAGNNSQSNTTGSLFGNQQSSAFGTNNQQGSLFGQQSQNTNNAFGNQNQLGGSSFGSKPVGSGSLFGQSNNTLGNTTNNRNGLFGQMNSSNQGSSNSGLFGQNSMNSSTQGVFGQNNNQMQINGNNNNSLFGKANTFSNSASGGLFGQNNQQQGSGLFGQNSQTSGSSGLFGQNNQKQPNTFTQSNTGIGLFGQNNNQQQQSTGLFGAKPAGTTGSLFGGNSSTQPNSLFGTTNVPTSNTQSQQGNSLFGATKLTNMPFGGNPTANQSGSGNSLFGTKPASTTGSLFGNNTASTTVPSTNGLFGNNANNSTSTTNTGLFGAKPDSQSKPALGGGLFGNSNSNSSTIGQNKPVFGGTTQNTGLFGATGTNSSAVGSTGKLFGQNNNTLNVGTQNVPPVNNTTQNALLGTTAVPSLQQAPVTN

Binder | binding result [1] | halo intensity (rim vs. background) against control beads [2] | binding result [3] | binding result [4]
B1 | binds | – | – | –
B2 | binds | – | – | –
B3 | – | ~2 fold | binds | binds
B4 | – | ~2 fold | binds | binds
